PMC3919625

Target: 2G12 IgG monomer (human)
Assay: SEC

- stoichiometry N (FcRn per 2G12 monomer): 2
B1: soluble neonatal Fc receptor (FcRn) (receptor)
chain 1: AEPRLPLMYHLAAVSDLSTGLPSFWATGWLGAQQYLTYNNLRQEADPCGAWIWENQVSWYWEKETTDLKSKEQLFLEAIRTLENQINGTFTLQGLLGCELAPDNSSLPTAVFALNGEEFMRFNPRTGNWSGEWPETDIVGNLWMKQPEAARKESEFLLTSCPERLLGHLERGRQNLEWKEPPSMRLKARPGNSGSSVLTCAAFSFYPPELKFRFLRNGLASGSGNCSTGPNGDGSFHAWSLLEVKRGDEHHYQCQVEHEGLAQPLTVDLDSPARSS
chain 2: IQKTPQIQVYSRHPPENGKPNFLNCYVSQFHPPQIEIELLKNGKKIPNIEMSDLSFSKDWSFYILAHTEFTPTETDVYACRVKHVTLKEPKTVTWDRDM
